Publication PMC3094755, “The DNA-Binding Domain of Human PARP-1 Interacts with DNA Single-Strand Breaks as a Monomer through Its Second Zinc Finger”

Key:
[1] = target: T1, PARP-1 F1+F2 (24-kDa DBD) (Homo sapiens, UniProt P09874 1-214); experiment: fluorescence anisotropy; 200; 50 mM Tris-HCl pH 7.0, 150 uM ZnSO4, 4 mM DTT, 25 C; NaCl 0-200 mM (T2, as in cof; 10 nM DNA) or 25 mM (T3 mutants; 25 nM DNA); conditions: protein: recombinant; label: fluorescein-dT at T8 and T30; single-chain dumbbell with central nick, two tetraloops
T1 sequence (P09874 1-214): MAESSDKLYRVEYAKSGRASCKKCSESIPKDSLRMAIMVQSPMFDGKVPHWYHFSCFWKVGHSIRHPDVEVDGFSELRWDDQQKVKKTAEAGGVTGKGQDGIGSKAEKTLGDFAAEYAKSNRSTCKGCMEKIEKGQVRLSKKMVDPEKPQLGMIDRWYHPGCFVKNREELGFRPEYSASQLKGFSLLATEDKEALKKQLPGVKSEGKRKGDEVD

[2] = target: T1, PARP-1 F1+F2 (24-kDa DBD); experiment: fluorescence anisotropy; 75; 50 mM Tris-HCl pH 7.0, 150 uM ZnSO4, 4 mM DTT, 25 C; NaCl 0-200 mM (T2, as in cof; 10 nM DNA) or 25 mM (T3 mutants; 25 nM DNA); conditions: protein: recombinant, label: fluorescein-dT at T8 and T30, two tetraloops
[3] = target: T1, PARP-1 F1+F2 (24-kDa DBD); experiment: fluorescence anisotropy; 0; 50 mM Tris-HCl pH 7.0, 150 uM ZnSO4, 4 mM DTT, 25 C; NaCl 0-200 mM (T2, as in cof; 10 nM DNA) or 25 mM (T3 mutants; 25 nM DNA); conditions: protein: recombinant, label: fluorescein-dT at T8 and T30, two tetraloops
[4] = target: T1, PARP-1 F1+F2 (24-kDa DBD); experiment: fluorescence anisotropy; 25; 50 mM Tris-HCl pH 7.0, 150 uM ZnSO4, 4 mM DTT, 25 C; NaCl 0-200 mM (T2, as in cof; 10 nM DNA) or 25 mM (T3 mutants; 25 nM DNA); conditions: protein: recombinant, label: fluorescein-dT at T8 and T30, two tetraloops
[5] = target: T1, PARP-1 F1+F2 (24-kDa DBD); experiment: fluorescence anisotropy; 50; 50 mM Tris-HCl pH 7.0, 150 uM ZnSO4, 4 mM DTT, 25 C; NaCl 0-200 mM (T2, as in cof; 10 nM DNA) or 25 mM (T3 mutants; 25 nM DNA); conditions: protein: recombinant, label: fluorescein-dT at T8 and T30, two tetraloops
[6] = target: T1, PARP-1 F1+F2 (24-kDa DBD); experiment: fluorescence anisotropy; 150; 50 mM Tris-HCl pH 7.0, 150 uM ZnSO4, 4 mM DTT, 25 C; NaCl 0-200 mM (T2, as in cof; 10 nM DNA) or 25 mM (T3 mutants; 25 nM DNA); conditions: protein: recombinant; label: fluorescein-dT at T8 and T30; single-chain dumbbell with central nick, two tetraloops
[7] = target: T1, PARP-1 F1+F2 (24-kDa DBD); experiment: fluorescence anisotropy; 100; 50 mM Tris-HCl pH 7.0, 150 uM ZnSO4, 4 mM DTT, 25 C; NaCl 0-200 mM (T2, as in cof; 10 nM DNA) or 25 mM (T3 mutants; 25 nM DNA); conditions: protein: recombinant, label: fluorescein-dT at T8 and T30, two tetraloops
[8] = target: T1, PARP-1 F1+F2 (24-kDa DBD); experiment: EMSA; 400 nM DNA; FA: 50 mM Tris-HCl pH 7, 150 uM ZnSO4, 4 mM DTT, 0-200 mM NaCl, 25 C, 10 nM DNA (mutants 25 nM DNA, 25 mM NaCl); EMSA: 50 mM Tris-HCl pH 7.4, 150 uM ZnSO4, 4 mM DTT, 10% glycerol, RT incubation, gel at 4 C; NMR complexes: 50 mM Tris pH 7.0, 150 uM ZnSO4, 4 mM DTT, 37 C; conditions: protein: recombinant; single-chain dumbbell, 18 bp with central nick, two tetraloops
[9] = target: T1, PARP-1 F1+F2 (24-kDa DBD); experiment: as above; conditions: protein: recombinant; single-chain dumbbell with 1-nt gap, two tetraloops
[10] = target: PARP-1 F2 K131I/G135D (Homo sapiens, UniProt P09874 103-214, K131I;G135D); experiment: as above; conditions: protein: recombinant; single-chain dumbbell with 1-nt gap, two tetraloops
Chain of PARP-1 F2 K131I/G135D (P09874 103-214 K131I/G135D): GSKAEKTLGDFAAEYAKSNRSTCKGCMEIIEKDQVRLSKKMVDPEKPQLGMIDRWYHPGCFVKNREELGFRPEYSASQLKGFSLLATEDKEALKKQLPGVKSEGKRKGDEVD

[11] = target: PARP-1 F2 K141I/K142I (Homo sapiens, UniProt P09874 103-214, K141I;K142I); experiment: as above; conditions: protein: recombinant; single-chain dumbbell with 1-nt gap, two tetraloops
Chain of PARP-1 F2 K141I/K142I (P09874 103-214 K141I/K142I): as the sequence (P09874 103-214 K131I/G135D) above, with I29K, D33G, K39I, K40I counted along it

[12] = target: PARP-1 F2 R138I (Homo sapiens, UniProt P09874 103-214, R138I); experiment: as above; conditions: protein: recombinant; single-chain dumbbell with 1-nt gap, two tetraloops
Chain of PARP-1 F2 R138I (P09874 103-214 R138I): as the sequence (P09874 103-214 K131I/G135D) above, with I29K, D33G, R36I counted along it

[13] = target: PARP-1 F2 (Homo sapiens, UniProt P09874 103-214); experiment: EMSA; 400 nM DNA; slightly less than F1+F2; FA: 50 mM Tris-HCl pH 7, 150 uM ZnSO4, 4 mM DTT, 0-200 mM NaCl, 25 C, 10 nM DNA (mutants 25 nM DNA, 25 mM NaCl); EMSA: 50 mM Tris-HCl pH 7.4, 150 uM ZnSO4, 4 mM DTT, 10% glycerol, RT incubation, gel at 4 C; NMR complexes: 50 mM Tris pH 7.0, 150 uM ZnSO4, 4 mM DTT, 37 C; conditions: protein: recombinant; single-chain dumbbell with 1-nt gap, two tetraloops
Chain of PARP-1 F2 (P09874 103-214): as the sequence (P09874 103-214 K131I/G135D) above, with I29K, D33G counted along it

[14] = target: T1, PARP-1 F1+F2 (24-kDa DBD); experiment: NMR; 1:1 complex; FA: 50 mM Tris-HCl pH 7, 150 uM ZnSO4, 4 mM DTT, 0-200 mM NaCl, 25 C, 10 nM DNA (mutants 25 nM DNA, 25 mM NaCl); EMSA: 50 mM Tris-HCl pH 7.4, 150 uM ZnSO4, 4 mM DTT, 10% glycerol, RT incubation, gel at 4 C; NMR complexes: 50 mM Tris pH 7.0, 150 uM ZnSO4, 4 mM DTT, 37 C; conditions: protein: recombinant; single-chain dumbbell with 1-nt gap, two tetraloops
[15] = single-chain dumbbell with central nick
[16] = circular closed dumbbell, no nick

Q: How did the Kd [1] turn out when CGGTCGATCGTAAGATCGACCGCGGTCGATCGTAAGATCGACCG (structured_DNA, 5'-phosphate) [44-nt nicked symmetric dumbbell, 5'-phosphate, 2x fluorescein-dT] was run?
A: 46.2 nM

Q: What about the Kd [2, 15] of the same binder?
A: 62.4 nM

Q: And the Kd [3, 15]?
A: 48.6 nM

Q: And the Kd [4, 15]?
A: 54.2 nM

Q: What about the Kd [5, 15] of the same binder?
A: 56.1 nM

Q: What about the Kd [6] of the same binder?
A: 52.4 nM

Q: What about the Kd [7, 15] of the same binder?
A: 56.9 nM

Q: For CGGTCGATCGTAAGATCGACCGCGGTCGATCGTAAGATCGACCG (structured_DNA, circular, nick sealed by T4 DNA ligase) [ligated (circular) symmetric 44-nt dumbbell, 2x fluorescein-dT], which Kd [2, 16] is on record?
A: 480 nM

Q: And the Kd [3, 16]?
A: 117 nM

Q: What about the Kd [4, 16] of the same binder?
A: 134 nM

Q: What about the Kd [5, 16] of the same binder?
A: 166 nM

Q: And the Kd [7, 16]?
A: 1110 nM

Q: Which binding signal [8] does the source give for CGGTCGATCGTAAGATCGACCGGCGCTGGAGCTTGCTCCAGCGC (structured_DNA, 5'-phosphate) [44-nt nicked dumbbell, 5'-phosphate] here?
A: ~2 fold weaker than gapped ligand

Q: What does the source list for CGGTCGATCGTAAGATCGACCGTGCGCTGGAGCTTGCTCCAGCGC (structured_DNA, 5'-phosphate) [45-nt gapped dumbbell, 5'-phosphate]?
A: binding result [9]: binds; binding result [10]: no binding; binding result [11]: no binding; binding result [12]: no binding; binding result [13]: binds

Q: Does CGGTCGATCGTAAGATCGACCGTGCGCTGGAGCTTGCTCCAGCGC (structured_DNA, 5'-deoxyribose (printed as 5' ribose in text)) [45-nt gapped dumbbell, 5'-ribosylated] bind [14]?
A: binds

Q: Does CGGTCGATCGTAAGATCGACCGTGCGCTGGAGCTTGCTCCAGCGC (structured_DNA, 3'-phosphate) [45-nt gapped dumbbell, 3'-phosphate] bind [14]?
A: binds
